Test [1] addresses T1, monovalent hVISTA-ECD (human VISTA extracellular domain with His tail) (human, UniProt Q9H7M9 33-193).
T1 construct: analyte flowed over captured antibody; also called huVISTA-His
Description: SPR, pH 7.4. The protocol: (§1) Binding of several preparations of each of the '029 progeny clones and of the parent '029 antibodies, formatted as IgG1.3 antibodies, to human VISTA at pH 6.0 and 7.4 was measured by Surface plasmon resonance (SPR). SPR analysis was performed to measure koff and KD binding affinity measurements for VISTA Abs at acidic and neutral pHs using a Biacore® T100 instrument (GE Healthcare). Protein A (ThermoFisher Scientific catalog #21181) was diluted to 20 ug/ml in 10 mM sodium acetate pH 4.5 and immobilized onto flow cells of a CM5 biosensor following the manufacturer's amine coupling protocol (GE Healthcare), targeting 2,000 RU immobilization density of Protein A per flow cell. SPR experiments were conducted at 37° C. using PBST (137 mM sodium chloride, 2.7 mM potassium chloride, 10 mM phosphate buffer, 0.05% Tween® 20) running buffer at pH 7.4 and 6.0. Antibodies were diluted to 25 nM in PBST pH 7.4, and were captured across active biosensor flow cells at 5 ul/min for 60 seconds. […] Two 15 second injections of 10 mM glycine pH 1.5 were used to regenerate the Protein A capture surface between assay cycles. Rate constants ka (kₒₙ) and kd (koff) were derived from reference flow cell and 0 nM blank-subtracted sensorgrams, and were fit to a 1:1 binding model in Biacore® T200 Evaluation Software v.2.0. The affinity constant, KD was calculated as the ratio of rate constants koff/kₒₙ for each VISTA antibody. […]
Background: SPR reads the build-up and loss of mass on a sensor chip optically.

Test [2] has as its target T1, monovalent hVISTA-ECD (human VISTA …). Description: SPR. The protocol:
as §1

Test [3] has the same target. Description: SPR, pH 6.0. The protocol:
as §1

T1 sequence (Q9H7M9 other isoform, or with tags, fused parts or gaps limits assumed): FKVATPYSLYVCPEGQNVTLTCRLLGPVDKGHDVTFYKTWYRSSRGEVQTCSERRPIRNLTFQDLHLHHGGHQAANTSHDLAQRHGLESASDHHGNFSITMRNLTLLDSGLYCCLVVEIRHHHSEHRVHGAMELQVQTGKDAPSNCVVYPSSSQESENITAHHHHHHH

B1: P1-064540 (41F11_VH_T28P/Y50W/S55E/A60H/Y100E) (antibody, V domains shown)
VH: QVQLVESGGGLVKPGGSLRLSCAASGFPFSDYYMSWIRQAPGKGLEWVSWISNSGEPIYYHDSVKGRFTISRDNAKNSLYLQMNSLRAEDTAVYYCARDLPGWEFDLWGRGTLVTVSS
VL: EIVLTQSPATLSLSPGERATLSCRASQSVSSYLAWYQQKPGQAPRLLIYDASNRATGIPARFSASGSGTDFTLTISSLEPEDFAVYYCQQRNNWPRTFGQGTKVEIK
notes: Kabat positions; also called P1-064540-1
The Kd is the equilibrium constant for the complex coming apart. Low readings indicate higher affinity, high ones lower affinity. In general, koff refers to a measure of how fast the partners let go of each other. For orientation: kon means the second-order rate constant of association. A lower kon goes with slow association. Turning to B1, in test [1], the affinity, expressed as Kd, was 0.285 nM; the koff was found to be 0.000158 s⁻¹; the kon came out at 553000 M⁻¹ s⁻¹. The “KD ratio (pH 7.4/pH 6.0)” value in test [2] amounted to 1.06. In test [3], the Kd is 0.268 nM, the koff was determined as 0.00192 s⁻¹ and the association rate constant (kon) came to 7.16e+06 M⁻¹ s⁻¹.

B2: P1-065320 (41F11_VH_L96EF100aG VK_A64G) (antibody, V domains shown)
VH: QVQLVESGGGLVKPGGSLRLSCAASGFTFSDYYMSWIRQAPGKGLEWVSYISNSGSPIYYADSVKGRFTISRDNAKNSLYLQMNSLRAEDTAVYYCARDEPGWYGDLWGRGTLVTVSS
VL: EIVLTQSPATLSLSPGERATLSCRASQSVSSYLAWYQQKPGQAPRLLIYDASNRATGIPARFSGSGSGTDFTLTISSLEPEDFAVYYCQQRNNWPRTFGQGTKVEIK
In test [1], B2 had a Kd of 2540 nM, a koff of 0.0352 s⁻¹ and an on-rate (kon) of 13800 M⁻¹ s⁻¹. In addition, in test [2], the “KD ratio (pH 7.4/pH 6.0)” value was 45.5. Moreover, in test [3], the affinity, expressed as Kd, was 55.8 nM; the koff came out at 0.0387 s⁻¹; the kon is 694000 M⁻¹ s⁻¹.

B3: P1-065332 (41F11_VH_T28P/Y50W/S55E/A60H/Y100E VK_A64G) (antibody, V domains shown)
VH: QVQLVESGGGLVKPGGSLRLSCAASGFPFSDYYMSWIRQAPGKGLEWVSWISNSGEPIYYHDSVKGRFTISRDNAKNSLYLQMNSLRAEDTAVYYCARDLPGWEFDLWGRGTLVTVSS
VL: EIVLTQSPATLSLSPGERATLSCRASQSVSSYLAWYQQKPGQAPRLLIYDASNRATGIPARFSGSGSGTDFTLTISSLEPEDFAVYYCQQRNNWPRTFGQGTKVEIK
notes: Kabat positions; also called P1-065332-1
With B3, in test [1], the affinity, expressed as Kd, was 0.456 nM; the koff came out at 0.000236 s⁻¹; the kon stood at 517000 M⁻¹ s⁻¹. Further, the “KD ratio (pH 7.4/pH 6.0)” value in test [2] amounted to 1.11. In test [3], this molecule had a Kd of 0.409 nM, an off-rate constant (koff) of 0.00221 s⁻¹ and a kon of 5.41e+06 M⁻¹ s⁻¹.

B4: P1-065312 (41F11_VH_F27E VK_A64G) (antibody, V domains shown)
VH: QVQLVESGGGLVKPGGSLRLSCAASGETFSDYYMSWIRQAPGKGLEWVSYISNSGSPIYYADSVKGRFTISRDNAKNSLYLQMNSLRAEDTAVYYCARDLPGWYFDLWGRGTLVTVSS
VL: EIVLTQSPATLSLSPGERATLSCRASQSVSSYLAWYQQKPGQAPRLLIYDASNRATGIPARFSGSGSGTDFTLTISSLEPEDFAVYYCQQRNNWPRTFGQGTKVEIK
notes: Kabat positions; also called P1-065312-1
In test [1], B4 showed a dissociation constant (Kd) of 6.61 nM, a koff of 0.00131 s⁻¹ and an on-rate (kon) of 198000 M⁻¹ s⁻¹. Further, in test [2], the “KD ratio (pH 7.4/pH 6.0)” value came to 0.3. In test [3], this molecule returned a Kd of 22.3 nM, a koff of 0.0449 s⁻¹ and a kon of 2.01e+06 M⁻¹ s⁻¹.

B5: P1-065329 (41F11_VH_D31E/S35Y/Y50W/S55E/A60H/Y100E/F100aG VK_A64G) (antibody, V domains shown)
VH: QVQLVESGGGLVKPGGSLRLSCAASGFTFSEYYMYWIRQAPGKGLEWVSWISNSGEPIYYHDSVKGRFTISRDNAKNSLYLQMNSLRAEDTAVYYCARDLPGWEGDLWGRGTLVTVSS
VL: EIVLTQSPATLSLSPGERATLSCRASQSVSSYLAWYQQKPGQAPRLLIYDASNRATGIPARFSGSGSGTDFTLTISSLEPEDFAVYYCQQRNNWPRTFGQGTKVEIK
notes: Kabat positions; also called P1-065329-1
On to B5, for which, in test [1], binding was put at a Kd of 478 nM, the koff was 0.000858 s⁻¹ and the kon worked out at 1800 M⁻¹ s⁻¹. For the same molecule, in test [2], the “KD ratio (pH 7.4/pH 6.0)” value was 40.2. In test [3], this molecule displayed a Kd of 11.9 nM, a koff of 0.00791 s⁻¹ and a kon of 663000 M⁻¹ s⁻¹.

B6: P1-065319 (41F11_VH_F100aG VK_A64G) (antibody, V domains shown)
VH: QVQLVESGGGLVKPGGSLRLSCAASGFTFSDYYMSWIRQAPGKGLEWVSYISNSGSPIYYADSVKGRFTISRDNAKNSLYLQMNSLRAEDTAVYYCARDLPGWYGDLWGRGTLVTVSS
VL: EIVLTQSPATLSLSPGERATLSCRASQSVSSYLAWYQQKPGQAPRLLIYDASNRATGIPARFSGSGSGTDFTLTISSLEPEDFAVYYCQQRNNWPRTFGQGTKVEIK
notes: Kabat positions; also called P1-065319-1
As for B6, in test [1], the Kd was 24.6 nM, the koff amounted to 0.00514 s⁻¹ and the kon stood at 209000 M⁻¹ s⁻¹. In addition, the “KD ratio (pH 7.4/pH 6.0)” value in test [2] turned out to be 0.85. For the same molecule, in test [3], the affinity, expressed as Kd, was 29.1 nM; the dissociation rate constant (koff) amounted to 0.0385 s⁻¹; the on-rate constant (kon) worked out at 1.32e+06 M⁻¹ s⁻¹.

B7: P1-065325 (41F11_VH_D31E/Y50W/S55E/A60H/Y100E VK_A64G) (antibody, V domains shown)
VH: QVQLVESGGGLVKPGGSLRLSCAASGFTFSEYYMSWIRQAPGKGLEWVSWISNSGEPIYYHDSVKGRFTISRDNAKNSLYLQMNSLRAEDTAVYYCARDLPGWEFDLWGRGTLVTVSS
VL: EIVLTQSPATLSLSPGERATLSCRASQSVSSYLAWYQQKPGQAPRLLIYDASNRATGIPARFSGSGSGTDFTLTISSLEPEDFAVYYCQQRNNWPRTFGQGTKVEIK
notes: Kabat positions; also called P1-065325-1
Take B7: in test [1], binding was characterised by a dissociation constant (Kd) of 0.255 nM, the off-rate constant (koff) was 0.000158 s⁻¹ and the kon was determined as 618000 M⁻¹ s⁻¹. The “KD ratio (pH 7.4/pH 6.0)” value in test [2] came out at 1.42. In test [3], binding was put at a Kd of 0.179 nM, the dissociation rate constant (koff) came to 0.00143 s⁻¹ and the kon was 7.99e+06 M⁻¹ s⁻¹.

B8: P1-065318 (41F11_VH_L96E VK A64G) (antibody, V domains shown)
VH: QVQLVESGGGLVKPGGSLRLSCAASGFTFSDYYMSWIRQAPGKGLEWVSYISNSGSPIYYADSVKGRFTISRDNAKNSLYLQMNSLRAEDTAVYYCARDEPGWYFDLWGRGTLVTVSS
VL: EIVLTQSPATLSLSPGERATLSCRASQSVSSYLAWYQQKPGQAPRLLIYDASNRATGIPARFSGSGSGTDFTLTISSLEPEDFAVYYCQQRNNWPRTFGQGTKVEIK
notes: Kabat positions; also called P1-065318-1
In test [1], B8 came in with a Kd of 38.5 nM, a koff of 0.0042 s⁻¹ and an on-rate constant (kon) of 109000 M⁻¹ s⁻¹. In addition, the “KD ratio (pH 7.4/pH 6.0)” value in test [2] came out at 4.91. Also, in test [3], binding was put at a Kd of 7.84 nM, the koff is 0.0154 s⁻¹ and the association rate constant (kon) worked out at 1.96e+06 M⁻¹ s⁻¹.

B9: P1-065316 (41F11_VH_A60H VK A64G) (antibody, V domains shown)
VH: QVQLVESGGGLVKPGGSLRLSCAASGFTFSDYYMSWIRQAPGKGLEWVSYISNSGSPIYYHDSVKGRFTISRDNAKNSLYLQMNSLRAEDTAVYYCARDLPGWYFDLWGRGTLVTVSS
VL: EIVLTQSPATLSLSPGERATLSCRASQSVSSYLAWYQQKPGQAPRLLIYDASNRATGIPARFSGSGSGTDFTLTISSLEPEDFAVYYCQQRNNWPRTFGQGTKVEIK
notes: Kabat positions; also called P1-065316-1
For the molecule B9, in test [1], binding was characterised by a dissociation constant (Kd) of 4.12 nM, the off-rate (koff) came to 0.000995 s⁻¹ and the kon came to 242000 M⁻¹ s⁻¹. In addition, the “KD ratio (pH 7.4/pH 6.0)” value in test [2] came out at 0.28. In test [3], this molecule yielded a Kd of 14.5 nM, a koff of 0.0561 s⁻¹ and a kon of 3.86e+06 M⁻¹ s⁻¹.

The values above are taken from US20220073617A1 (Five Prime, published 2022).
